Data as given in article doi:10.1101/2024.03.15.585150 (bioRxiv, 2024).
Read-outs that look alike come from different tables or passages of the source. No end group written: not given here. *: point of attachment. Biotin = O=C1N[C@H]2[C@H](CS[C@H]2CCCCC(=O)*)N1

Columns and labels:
[1] = biological target: T1, KIX domain of CBP coactivator (KIX region 586-672) (UniProt P45481 586-672); assay: BLI
[2] = biological target: T1, KIX domain of CBP coactivator (KIX …); assay: BLI; remark: listed apart in the source

Binder: Biotin-GSSGDVSWDTLDLDDLD [Sp1-Ac peptide (acidic form of Sp1 9aaTAD), Biotin-GSS-GDVSWDTLDLDDLD]
- Kd [1]: 9.77 ± 1.57 µM

Binder: Biotin-GSSSEPPSWVTEMLLEN [N-Myc peptide (N-Myc 9aaTAD), Biotin-GSSS-EPPSWVTEMLLEN]
- Kd [2]: 880 ± 110 nM

Binder: Biotin-GSNILPSDIMDFVLKNT [MLL peptide (MLL 9aaTAD), Biotin-GS-NILPSDIMDFVLKNT]
- Kd [2]: 1170 ± 210 nM

Binder: Biotin-GSSSTQLEMVTELLG [c-Myc peptide (c-Myc 9aaTAD), Biotin-GSSS-TQLEMVTELLG]
- Kd [2]: 2160 ± 1170 nM
